Measured values taken from patent publication US8765433B2, “Alcohol dehydrogenases (ADH) useful for fermentive production of lower alkyl alcohols” (Butamax Advanced Biofuels LLC, priority 2009, dated 2014).

Tests used:
Type in all cases: biochemical
[1] = ADH activity assays of cell extracts and purified proteins; details: cell extracts or purified protein, initial experiments
Experimental: (§1) As a routine practice, the crude extracts and purified proteins were assayed for butanol oxidation activity, in order to ensure that the recombinant proteins were active throughout the purification process. […] Alcohol oxidation activities were carried out in 50 mM sodium phosphate buffer at pH 8.8 and aldehyde reduction reactions were assayed in 190 mM potassium phosphate buffer at pH 7.0. Depending on the nature of reaction being carried out, the enzyme and cofactor stocks were diluted in the reaction buffers at the respective pHs. Either buffer or cell extract prepared from the proprietary E. coli strain (with no ADH plasmid) was used as the negative control for assays with purified protein and cell-free extracts, respectively.
(§2) In initial experiments, there were insufficient levels of protein expression with EhADH1 and RpADH8. […] It is believed that one of skill in the art could further optimize expression and assay conditions for these candidates. Sufficient amounts of active protein could be purified with all other enzymes for which data are presented. […]

[2] = Cofactor specificity in isobutyraldehyde reduction reactions; details: for COFACTOR PREFERENCE: isobutyraldehyde reduction, NADH or NADPH as cofactor
Experimental: as §1, §2

[3] = Semi-physiological time-course assay with and without 321 mM isobutanol
Description: The ideal way to characterize and compare various ADH candidates would be to calculate and compare the full set of kinetic constants, i.e., kcat values for aldehyde reduction and alcohol oxidation, KM values for isobutyraldehyde, isobutanol, NAD(P) and NAD(P)H, and KI values for isobutyraldehyde and isobutanol. A detailed characterization for numerous candidates would require considerable expenditure of time, effort and money. Thus, a qualitative assay was developed to allow for quick and efficient comparison of several candidates. A semi-physiological assay was designed to compare the performance of various enzymes. The assays entail the initiation of all reactions with a constant amount of each enzyme. […] Each reaction's time course was followed for 10 min by measuring the decrease in absorbance at 340 nm, as the reaction proceeds towards equilibrium. An enzyme with a high kcat, would drive the reaction towards equilibrium faster than an enzyme with a lower kcat. A parallel assay was also carried out under identical conditions, but with the inclusion of 321 mM isobutanol (24 g/L) in the reaction. An enzyme that is relatively uninhibited by this concentration of isobutanol would have a time course that closely mimics the time course in the absence of isobutanol.

[4] = Isobutanol oxidation assay; details: Table 8
Experimental: as §1
Kinetic constants of the ADH enzymes were calculated and compared to identify those candidate ADH enzymes with the most desirable properties for the conversion of isobutyraldehyde to isobutanol in the last step of the engineered pathway for isobutanol production. The assays for determining the kinetic constants were carried out using initial rates from the assays described above. […] The concentration of a given enzyme was such that it was conducive for the measurement of initial velocities over a 1-min time course. For each enzyme, Michaelis-Menten plots were generated with a broad range of substrate concentrations. Rough estimates of KM were obtained, based on which the assays were redesigned so as to use substrate concentrations in the range 0.5 to 10 times the KM value, to be able to obtain the appropriate kinetic constants. […] When calculating the KI for isobutanol, the same reactions were carried out in the presence of varying concentrations of isobutanol (generally 0-535 mM) in the reaction (see FIG. 7, for example). Reactions with isobutanol substrate were performed at 30° C. in 50 mM Sodium phosphate buffer, pH 8.8, containing 7.5 mM NAD. The Enzyme kinetics module (Version 1.3) of SigmaPlot 11 (Systat Software, Inc.) was used to fit data to Michaelis-Menten equations and calculate the kinetic constants. The kcat/KM is derived from the individual numbers of kcat and KM and not an experimentally determined value. The ratios of the KM, KI, and kcat/KM for each candidate enzyme as compared to the same parameter for SadB are given in Table 9.

Row | Molecule | ADH activity [1] | COFACTOR PREFERENCE [2] | further results
1 | BtARD: Bos Taurus Aldehyde Reductase, SEQ ID NO: 27 (protein, listed as Bos taurus) MAASCILLHTGQKMPLIGLGTWKSDPGQVKAAIKYALSVGYRHIDCAAIYGNETEIGEALKENVGPGKLVPREELFVTSKLWNTKHHPEDVEPALRKTLADLQLEYLDLYLMHWPYAFERGDSPFPKNADGTIRYDSTHYKETWRALEALVAKGLVRALGLSNFNSRQIDDVLSVASVRPAVLQVECHPYLAQNELIAHCQARNLEVTAYSPLGSSDRAWRDPEEPVLLKEPVVLALAEKHGRSPAQILLRWQVQRKVSCIPKSVTPSRILENIQVFDFTFSPEEMKQLDALNKNLRFIVPMLTVDGKRVPRDAGHPLYPFNDPY | no detectable activity |  | 
2 | RpADH8: Rana perezi ADH8, SEQ ID NO: 28 (protein, listed as Rama perezi) MCTAGKDITCKAAVAWEPHKPLSLETITVAPPKAHEVRIKILASGICGSDSSVLKEIIPSKFPVILGHEAVGVVESIGAGVTCVKPGDKVIPLFVPQCGSCRACKSSNSNFCEKNDMGAKTGLMADMTSRFTCRGKPIYNLVGTSTFTEYTVVADIAVAKIDPKAPLESCLIGCGFATGYGAAVNTAKVTPGSTCAVFGLGGVGFSAIVGCKAAGASRIIGVGTHKDKFPKAIELGATECLNPKDYDKPIYEVICEKTNGGVDYAVECAGRIETMMNALQSTYCGSGVTVVLGLASPNERLPLDPLLLLTGRSLKGSVFGGFKGEEVSRLVDDYMKKKINVNFLVSTKLTLDQINKAFELLSSGQGVRSIMIY | failed to detect ADH activity |  | 
3 | ScADH6: Saccharomyces cerevisiae ADH6 alcohol dehydrogenase, SEQ ID NO: 22 (protein, listed as Saccharomyces cerevisiae) MSYPEKFEGIAIQSHEDWKNPKKTKYDPKPFYDHDIDIKIEACGVCGSDIHCAAGHWGNMKMPLVVGHEIVGKVVKLGPKSNSGLKVGQRVGVGAQVFSCLECDRCKNDNEPYCTKFVTTYSQPYEDGYVSQGGYANYVRVHEHFVVPIPENIPSHLAAPLLCGGLTVYSPLVRNGCGPGKKVGIVGLGGIGSMGTLISKAMGAETYVISRSSRKREDAMKMGADHYIATLEEGDWGEKYFDTFDLIVVCASSLTDIDFNIMPKAMKVGGRIVSISIPEQHEMLSLKPYGLKAVSISYSALGSIKELNQLLKLVSEKDIKIWVETLPVGEAGVHEAFERMEKGDVRYRFTLVGYDKEFSD |  | NADPH | Other enzymatic properties and cofactor preference ([2]; Table 7): NADPH specific; inhibition by isobutanol (inferred from time courses, FIG. 1) ([3]; 321 mM isobutanol (24 g/L)): likely to be the least inhibited
4 | BiADH: ADH of Beijerinckia indica subsp. Indica ATCC 9039, SEQ ID NO: 31 (protein, listed as Beijerickia indica) MKALVYRGPGQKLVEERQKPELKEPGDAIVKVTKTTICGTDLHILKGDVATCKPGRVLGHEGVGVIESVGSGVTAFQPGDRVLISCISSCGKCSFCRRGMFSHCTTGGWILGNEIDGTQAEYVRVPHADTSLYRIPAGADEEALVMLSDILPTGFECGVLNGKVAPGSSVAIVGAGPVGLAALLTAQFYSPAEIIMIDLDDNRLGLAKQFGATRTVNSTGGNAAAEVKALTEGLGVDTAIEAVGIPATFELCQNIVAPGGTIANVGVHGSKVDLHLESLWSHNVTITTRLVDTATTPMLLKTVQSHKLDPSRLITHRFSLDQILDAYETFGQAASTQALKVIISMEA |  | NADH | kcat for the isobutyraldehyde reduction reaction (inferred from time courses, FIG. 1) ([3]; 1 ug enzyme, 1 mM isobutyraldehyde, 200 μM NADH, 10 min): likely to have the highest kcat
5 | EhADH1: Entamoeba histolytica ADH1, SEQ ID NO: 30 (protein, listed as Entamoeba histolytica) MKGLAMLGIGRIGWIEKKIPECGPLDALVRPLALAPCTSDTHTVWAGAIGDRHDMILGHEAVGQIVKVGSLVKRLKVGDKVIVPAITPDWGEEESQRGYPMHSGGMLGGWKFSNFKDGVFSEVFHVNEADANLALLPRDIKPEDAVMLSDMVTTGFHGAELANIKLGDTVCVIGIGPVGLMSVAGANHLGAGRIFAVGSRKHCCDIALEYGATDIINYKNGDIVEQILKATDGKGVDKVVIAGGDVHTFAQAVKMIKPGSDIGNVNYLGEGDNIDIPRSEWGVGMGHKHIHGGLTPGGRVRMEKLASLISTGKLDTSKLITHRFEGLEKVEDALMLMKNKPADLIKPVVRIHYDDEDTLH | failed to detect ADH activity |  | 
6 | McADH: Mucor circinelloides ADH, SEQ ID NO: 39 (protein, Mucor circinelloides) MSEETFTAWACKSKSAPLEPMEMTFCHWDDDMVQMDVICCGVCGTDLHTVDEGWGPTEFPCVVGHEIIGNVTKVGKNVTRIKVGDRCGVGCQSASCGKCDFCKKGMENLCSTHAVWTFNDRYDNATKDKTYGGFAKKWRGNQDFVVHVPMDFSPEVAASFLCGGVTTYAPLKRYGVGKGSKVAVLGLGGLGHFGVQWAKAMGAEVVAFDVIPDKVDDAKKLGCDDYVLMQKEEQMEPHYNTFTHILATKIVNKCWDQYFKMLKNNGIFMLCDIPEVPLSGMSAFVMAGKQLTIAGTFIGSPSVIQECLDFAAKHNVRTWVNTFPMEKINEAFEFVRQAKPRYRAVVMN |  | NADH | Other enzymatic properties and cofactor preference ([2]; Table 8): NADH specific; conversion of isobutanol to isobutyraldehyde [4]: No measureable
7 | VpADH: Vanderwaltozyma polyspora DSM 70294 ADH, SEQ ID NO: 38 (protein, Vanderwaltozyma polyspora DSM 70294) MSYPEKFQGIGITNREDWKHPKKVTFEPKQFNDKDVDIKIEACGVCGSDVHCAASHWGPVAEKQVVGHEIIGRVLKVGPKCTTGIKVGDRVGVGAQAWSCLECSRCKSDNESYCPKSVWTYSIPYIDGYVSQGGYASHIRLHEHFAIPIPDKLSNELAAPLLCGGITVYSPLLRNGCGPGKKVGIVGIGGIGHMGLLFAKGMGAEVYAFSRTHSKEADAKKLGADHFIATLEDKDWTTKYFDTLDLLVICASSLTDINFDELTKIMKVNTKIISISAPAADEVLTLKPFGLIGVTIGNSAIGSRREIEHLLNFVAEKDIKPWVETLPVGEAGVNEAFERMDKGDVKYRFTLVDFDKEFGN | no detectable activity |  | 
